First the molecules themselves.
B1: 2A2 CAR against ROR1 with Spacer 13 (protein)
chain: QVQLQQSGAELVRPGASVTLSCKASGYTFSDYEMHWVIQTPVHGLEWIGAIDPETGGTAYNQKFKGKAILTADKSSSTAYMELRSLTSEDSAVYYCTGYYDYDSFTYWGQGTLVTVSAGGGGSGGGGSGGGGSDIVMTQSQKIMSTTVGDRVSITCKASQNVDAAVAWYQQKPGQSPKLLIYSASNRYTGVPDRFTGSGSGTDFTLTISNMQSEDLADYFCQQYDIYPYTFGGGTKLEIKTGGGGSGPCPRCPAPMFWVLVVVGGVLACYSLLVTVAFIIFWVKRGRKKLLYIFKQPFMRPVQTTQEEDGCSCRFPEEEEGGCELRVKFSRSADAPAYQQGQNQLYNELNLGRREEYDVLDKRRGRDPEMGGKPRRKNPQEGLYNELQKDKMAEAYSEIGMKGERRRGKGHDGLYQGLSTATKDTYDALHMQALPPR
B2: R11 CAR against ROR1 with Spacer 5 (protein)
chain: QSVKESEGDLVTPAGNLTLTCTASGSDINDYPISWVRQAPGKGLEWIGFINSGGSTWYASWVKGRFTISRTSTTVDLKMTSLTTDDTATYFCARGYSTYYGDFNIWGPGTLVTISSGGGGSGGGGSGGGGSELVMTQTPSSTSGAVGGTVTINCQASQSIDSNLAWFQQKPGQPPTLLIYRASNLASGVPSRFSGSRSGTEYTLTISGVQREDAATYYCLGGVGNVSYRTSFGGGTEVVVKTGGGGSGCPRCPEPKSCDTPPPCPRCPEPKSCDTPPPCPRCPEPKSCDTPPPCPRCPAPMFWVLVVVGGVLACYSLLVTVAFIIFWVKRGRKKLLYIFKQPFMRPVQTTQEEDGCSCRFPEEEEGGCELRVKFSRSADAPAYQQGQNQLYNELNLGRREEYDVLDKRRGRDPEMGGKPRRKNPQEGLYNELQKDKMAEAYSEIGMKGERRRGKGHDGLYQGLSTATKDTYDALHMQALPPR
B3: 2A2 CAR against ROR1 with Spacer 21 (protein)
chain: QVQLQQSGAELVRPGASVTLSCKASGYTFSDYEMHWVIQTPVHGLEWIGAIDPETGGTAYNQKFKGKAILTADKSSSTAYMELRSLTSEDSAVYYCTGYYDYDSFTYWGQGTLVTVSAGGGGSGGGGSGGGGSDIVMTQSQKIMSTTVGDRVSITCKASQNVDAAVAWYQQKPGQSPKLLIYSASNRYTGVPDRFTGSGSGTDFTLTISNMQSEDLADYFCQQYDIYPYTFGGGTKLEIKTGGGGSGVPCPVPPMFWVLVVVGGVLACYSLLVTVAFIIFWVKRGRKKLLYIFKQPFMRPVQTTQEEDGCSCRFPEEEEGGCELRVKFSRSADAPAYQQGQNQLYNELNLGRREEYDVLDKRRGRDPEMGGKPRRKNPQEGLYNELQKDKMAEAYSEIGMKGERRRGKGHDGLYQGLSTATKDTYDALHMQALPPR
B4: R12 CAR with Spacer 1 (ROR1-specific R12 scFv, Gly-Ser linker, Spacer 1, CD28-derived transmembrane domain, 4-1BB costimulatory domain, CD3 zeta signaling … (protein)
chain: QEQLVESGGRLVTPGGSLTLSCKASGFDFSAYYMSWVRQAPGKGLEWIATIYPSSGKTYYATWVNGRFTISSDNAQNTVDLQMNSLTAADRATYFCARDSYADDGALFNIWGPGTLVTISSGGGGSGGGGSGGGGSELVLTQSPSVSAALGSPAKITCTLSSAHKTDTIDWYQQLQGEAPRYLMQVQSDGSYTKRPGVPDRFSGSSSGADRYLIIPSVQADDEADYYCGADYIGGYVFGGGTQLTVTGGGGSGKPCPPCKCPMFWVLVVVGGVLACYSLLVTVAFIIFWVKRGRKKLLYIFKQPFMRPVQTTQEEDGCSCRFPEEEEGGCELRVKFSRSADAPAYQQGQNQLYNELNLGRREEYDVLDKRRGRDPEMGGKPRRKNPQEGLYNELQKDKMAEAYSEIGMKGERRRGKGHDGLYQGLSTATKDTYDALHMQALPPR
B5: R11 CAR against ROR1 with Spacer 6 (protein)
chain: QSVKESEGDLVTPAGNLTLTCTASGSDINDYPISWVRQAPGKGLEWIGFINSGGSTWYASWVKGRFTISRTSTTVDLKMTSLTTDDTATYFCARGYSTYYGDFNIWGPGTLVTISSGGGGSGGGGSGGGGSELVMTQTPSSTSGAVGGTVTINCQASQSIDSNLAWFQQKPGQPPTLLIYRASNLASGVPSRFSGSRSGTEYTLTISGVQREDAATYYCLGGVGNVSYRTSFGGGTEVVVKTGGGGSGEPKSCDTPPPCPRCPEPKSCDTPPPCPRCPEPKSCDTPPPCPRCPAPMFWVLVVVGGVLACYSLLVTVAFIIFWVKRGRKKLLYIFKQPFMRPVQTTQEEDGCSCRFPEEEEGGCELRVKFSRSADAPAYQQGQNQLYNELNLGRREEYDVLDKRRGRDPEMGGKPRRKNPQEGLYNELQKDKMAEAYSEIGMKGERRRGKGHDGLYQGLSTATKDTYDALHMQALPPR
B6: 2A2 CAR against ROR1 with Spacer 28 (protein)
chain: QVQLQQSGAELVRPGASVTLSCKASGYTFSDYEMHWVIQTPVHGLEWIGAIDPETGGTAYNQKFKGKAILTADKSSSTAYMELRSLTSEDSAVYYCTGYYDYDSFTYWGQGTLVTVSAGGGGSGGGGSGGGGSDIVMTQSQKIMSTTVGDRVSITCKASQNVDAAVAWYQQKPGQSPKLLIYSASNRYTGVPDRFTGSGSGTDFTLTISNMQSEDLADYFCQQYDIYPYTFGGGTKLEIKTGGGGSGSVCSRDFTPPMFWVLVVVGGVLACYSLLVTVAFIIFWVKRGRKKLLYIFKQPFMRPVQTTQEEDGCSCRFPEEEEGGCELRVKFSRSADAPAYQQGQNQLYNELNLGRREEYDVLDKRRGRDPEMGGKPRRKNPQEGLYNELQKDKMAEAYSEIGMKGERRRGKGHDGLYQGLSTATKDTYDALHMQALPPR
B7: R11 CAR against ROR1 with Spacer 4 (protein)
chain: QSVKESEGDLVTPAGNLTLTCTASGSDINDYPISWVRQAPGKGLEWIGFINSGGSTWYASWVKGRFTISRTSTTVDLKMTSLTTDDTATYFCARGYSTYYGDFNIWGPGTLVTISSGGGGSGGGGSGGGGSELVMTQTPSSTSGAVGGTVTINCQASQSIDSNLAWFQQKPGQPPTLLIYRASNLASGVPSRFSGSRSGTEYTLTISGVQREDAATYYCLGGVGNVSYRTSFGGGTEVVVKTGGGGSGELKTPLGDTTHTCPRCPEPKSCDTPPPCPRCPEPKSCDTPPPCPRCPEPKSCDTPPPCPRCPAPMFWVLVVVGGVLACYSLLVTVAFIIFWVKRGRKKLLYIFKQPFMRPVQTTQEEDGCSCRFPEEEEGGCELRVKFSRSADAPAYQQGQNQLYNELNLGRREEYDVLDKRRGRDPEMGGKPRRKNPQEGLYNELQKDKMAEAYSEIGMKGERRRGKGHDGLYQGLSTATKDTYDALHMQALPPR

Chain of human ROR1 (tyrosine-protein kinase transmembrane receptor ROR1) (human), Q01973 (Q01973 30-937): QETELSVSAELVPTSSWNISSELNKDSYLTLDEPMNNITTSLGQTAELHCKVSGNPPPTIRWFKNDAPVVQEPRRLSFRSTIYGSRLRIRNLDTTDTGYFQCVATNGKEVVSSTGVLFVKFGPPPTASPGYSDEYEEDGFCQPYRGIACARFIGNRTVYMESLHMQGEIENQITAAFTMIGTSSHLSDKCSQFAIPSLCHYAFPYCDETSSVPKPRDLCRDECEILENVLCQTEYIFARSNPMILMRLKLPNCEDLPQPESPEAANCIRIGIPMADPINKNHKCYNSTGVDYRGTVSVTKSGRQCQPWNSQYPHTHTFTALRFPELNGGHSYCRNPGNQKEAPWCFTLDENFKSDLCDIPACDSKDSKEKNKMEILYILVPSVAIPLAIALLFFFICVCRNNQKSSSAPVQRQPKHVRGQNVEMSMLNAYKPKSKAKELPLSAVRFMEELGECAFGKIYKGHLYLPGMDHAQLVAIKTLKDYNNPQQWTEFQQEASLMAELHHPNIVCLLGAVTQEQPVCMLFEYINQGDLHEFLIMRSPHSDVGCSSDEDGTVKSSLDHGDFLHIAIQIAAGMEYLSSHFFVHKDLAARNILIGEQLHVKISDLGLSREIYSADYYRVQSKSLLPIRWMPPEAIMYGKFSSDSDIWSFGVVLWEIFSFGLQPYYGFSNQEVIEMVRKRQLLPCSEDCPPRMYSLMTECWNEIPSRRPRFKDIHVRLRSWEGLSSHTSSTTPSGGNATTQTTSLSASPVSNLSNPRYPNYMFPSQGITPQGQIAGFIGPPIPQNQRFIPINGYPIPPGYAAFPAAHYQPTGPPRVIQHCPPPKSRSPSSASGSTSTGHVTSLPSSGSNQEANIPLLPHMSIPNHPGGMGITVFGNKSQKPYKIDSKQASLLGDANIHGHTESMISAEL

The assay concerns the target human ROR1 (tyrosine-protein kinase transmembrane receptor ROR1) (human), Q01973. In words: cell-based or functional assay.
As to B1, the A549 IFNg, donor 2089 was 46600; the A549 IFNg, donor 5018 stood at 38900; the A549 IL-2, donor 2089 was determined as 1; the A549 IL-2, donor 5018 is 3. This molecule also came in with an A549 normalized AUC, donor 2089 of 42; an A549 normalized AUC, donor 5018 of 61; an H1975 IFNg, donor 2089 of 67100; an H1975 IFNg, donor 5018 of 54300. The molecule also showed an H1975 IL-2, donor 2089 of 1; an H1975 IL-2, donor 5018 of 14; an H1975 normalized AUC, donor 2089 of 37.9; an H1975 normalized AUC, donor 5018 of 43.2.
B2 yielded an A549 IFNg, donor 5018 of 60900; an A549 IFNg, donor 7811 of 83600; an A549 IL-2, donor 5018 of 10; an A549 IL-2, donor 7811 of 87. Further, the A549 normalized AUC, donor 5018 stood at 55.8; the A549 normalized AUC, donor 7811 amounted to 48.8; the H1975 IFNg, donor 5018 worked out at 17300; the H1975 IFNg, donor 7811 was 32400. This molecule returned an H1975 IL-2, donor 5018 of 2; an H1975 IL-2, donor 7811 of 16; an H1975 normalized AUC, donor 5018 of 86.7; an H1975 normalized AUC, donor 7811 of 69.6.
B3 came in with an A549 IFNg, donor 2089 of 55400; an A549 IFNg, donor 5018 of 41300; an A549 IL-2, donor 2089 of 1; an A549 IL-2, donor 5018 of 3. For the same molecule, the A549 normalized AUC, donor 2089 turned out to be 38; the A549 normalized AUC, donor 5018 was found to be 58.9; the H1975 IFNg, donor 2089 came to 78000; the H1975 IFNg, donor 5018 is 61900. Also, the H1975 IL-2, donor 2089 was found to be 2; the H1975 IL-2, donor 5018 turned out to be 13; the H1975 normalized AUC, donor 2089 was found to be 39.4; the H1975 normalized AUC, donor 5018 is 43.2.
B4 registered an A549 IFNg, donor 2735 of 8940; an A549 IFNg, donor 5018 of 4350; an A549 IL-2, donor 2735 of 4; an A549 IL-2, donor 5018 of 0. The molecule also returned an A549 normalized AUC, donor 2735 of 67.6; an A549 normalized AUC, donor 5018 of 80.9; an H1975 IFNg, donor 2735 of 15700; an H1975 IFNg, donor 5018 of 4850. Also, the H1975 IL-2, donor 2735 amounted to 10; the H1975 IL-2, donor 5018 is 0; the H1975 normalized AUC, donor 2735 came to 67.6; the H1975 normalized AUC, donor 5018 came out at 68.8.
Turning to B5, the A549 IFNg, donor 5018 is 46300; the A549 IFNg, donor 7811 was determined as 86700; the A549 IL-2, donor 5018 is 10; the A549 IL-2, donor 7811 came to 89. This molecule came in with an A549 normalized AUC, donor 5018 of 58.4; an A549 normalized AUC, donor 7811 of 51.4; an H1975 IFNg, donor 5018 of 7170; an H1975 IFNg, donor 7811 of 11900. Besides, the H1975 IL-2, donor 5018 was 1; the H1975 IL-2, donor 7811 was found to be 2; the H1975 normalized AUC, donor 5018 is 114; the H1975 normalized AUC, donor 7811 was determined as 96.5.
On to B6, for which the A549 IFNg, donor 2089 amounted to 49900; the A549 IFNg, donor 5018 stood at 34200; the A549 IL-2, donor 2089 was 1; the A549 IL-2, donor 5018 worked out at 2. Further, the A549 normalized AUC, donor 2089 was found to be 43.6; the A549 normalized AUC, donor 5018 worked out at 61; the H1975 IFNg, donor 2089 came out at 78300; the H1975 IFNg, donor 5018 is 58100. Moreover, the H1975 IL-2, donor 2089 worked out at 1; the H1975 IL-2, donor 5018 worked out at 8; the H1975 normalized AUC, donor 2089 amounted to 39.5; the H1975 normalized AUC, donor 5018 came out at 44.3.
Take B7: the A549 IFNg, donor 5018 is 37000; the A549 IFNg, donor 7811 stood at 46200; the A549 IL-2, donor 5018 worked out at 5; the A549 IL-2, donor 7811 is 26. The A549 normalized AUC, donor 5018 is 59.1; the A549 normalized AUC, donor 7811 was 54.6; the H1975 IFNg, donor 5018 amounted to 9130; the H1975 IFNg, donor 7811 turned out to be 15900. This molecule registered an H1975 IL-2, donor 5018 of 1; an H1975 IL-2, donor 7811 of 4; an H1975 normalized AUC, donor 5018 of 94.5; an H1975 normalized AUC, donor 7811 of 83.1.

(Values after US20260098075A1.)
